Reference: patent US20240059766A1

What was measured:
[1] = target: T1, Tau(pS404) peptide (human); test: competition ELISA, TauS404 coated at 1 ug/mL, VY014 titrated; AC04 peptide at 1 µg/mL as competitor in solution
T1 sequence (peptide, only S404 phosphorylated (pS404)): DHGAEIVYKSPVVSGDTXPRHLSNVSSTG

[2] = target: T1, Tau(pS404) peptide (human); test: direct ELISA, TauS404 coated at 1 ug/mL, antibody titrated
[3] = target: T1, Tau(pS404) peptide (human); test: competition ELISA, TauS404 coated at 1 ug/mL, VY014 titrated; peptide 12 at 1 µg/mL as competitor in solution

B1: VY014 (antibody, V domains shown)
VH: EVQLVESGGGLVQPGGSLRLSCAASGFTFNNYDMHWVRQAAGKGLEWVSTIGAAGDTYYPGSVKGRFIISRENAKNSLYLQMNSLRAGDTAVYYCARAGETLEGATIGYYYGMDVWGQGTTVTVSS
VL: DILMTQSPLSLPVTPGEPASISCRSSQSLLHSNGYNYLDWYLQKPGQSPQLLIYLGSNRASGVPDRFSGSGSGTDFTLKFSRVEAEDVGLYYCMQALQIPLTFGGGTKVEIK
In the case of B1, the EC50 (read off the curve) [1] is reported as 0.08 nM, the EC50 (read off the curve) [2] is reported as 0.06 nM and the EC50 (read off the curve) [3] is reported as 0.2 nM.
